In patent publication US20190167709A1:

Molecular target: CD20 (B-cell surface antigen CD20 on human Burkitt's B-cell non-Hodgkin's lymphoma Raji cells) (human) (UniProt P11836)
Test: cell-based or functional assay

Sequence of UniProt P11836 (P11836 whole entry): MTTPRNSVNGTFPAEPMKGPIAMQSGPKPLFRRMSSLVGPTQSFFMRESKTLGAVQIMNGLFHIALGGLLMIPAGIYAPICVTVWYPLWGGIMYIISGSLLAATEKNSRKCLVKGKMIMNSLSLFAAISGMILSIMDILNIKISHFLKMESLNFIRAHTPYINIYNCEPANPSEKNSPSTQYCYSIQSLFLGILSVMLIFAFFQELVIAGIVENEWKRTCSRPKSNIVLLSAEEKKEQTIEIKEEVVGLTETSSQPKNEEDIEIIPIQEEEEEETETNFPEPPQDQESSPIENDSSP

apoptosis induction, fold over untreated, Raji B-cells; 5 µM Fab′-MORF1 + P-MORF2/v3 (fold compared to untreated): 7
apoptosis of Raji B-cells, P-MORF2/v10 against P-MORF2/v3 (0.5 µM Fab′, MORF1:MORF2 = 1:1 or 1:10) (fold against P-MORF2/v3): 2
apoptotic cells, annexin V/PI staining, Raji B-cells; 1 µM Fab′-MORF1 and equimolar P-MORF2/v3: 40%
apoptotic cells, fold over untreated, annexin V/PI staining, Raji B-cells; 1 µM Fab′-MORF1 and equimolar P-MORF2/v3 (fold compared to untreated): > 4
apoptotic index (%), Annexin V/PI binding assay, Raji B-cells, 48 h; consecutive Fab′-MORF1 then Copolymer-MORF2, 0.5 µM, valence = 10, MORF1:MORF2 1:1: 50%
apoptotic index (%), Annexin V/PI binding assay, Raji B-cells, 48 h; consecutive Fab′-MORF1 then Copolymer-MORF2, 1 µM, valence = 3, MORF1:MORF2 1:1: 37%
Substance: Fab′-MORF1 conjugate (Fab′ fragment of the mouse anti-human CD20 IgG2a mAb 1F5 tethered to the 3′ end of morpholino MORF1 via a thioether bond)
